{"source": "patent US12710427B2", "about": "“Anti-human neurotensin receptor 1 antibody and use thereof” (National Health Research Institutes, priority 2020, dated 2026)", "molecules": {"B1": {"name": "h7C3-3: 7C3 variant bearing T28A in CDR H1, Y100H in CDR H3 and S97A in CDR L3 (antibody, V domains shown)", "VH": "QVQLQQPGSVLVRPGASVKLSCKASGYAFTSSWIHWAKQRPGQGLEWIGQIRPNSGNTYYNEKFKVKATLTVDTSSSTAYVDLSSLTSEDSAVYYCARYHYGFDYWGQGTLVTVSS", "VL": "DVLMTQTPLSLPVSLGDQASISCRSSQSIVHSNGNTYLEWYLQKPGQSPKLLIYKVSNRFSGVPDRFSGSGSGTDFTLKISRVEAEDLGVYYCFQGAHLPWTFGGGTKLEIKR"}}, "key": {"A549 cells": {"tested_on": "A549 cells", "test": "Internalization of NTSR-1 antibody (flow cytometry)", "type": "cell-based", "details": "A549, 10 μg/ml", "procedure": "NTSR-1 antibody was used for flow cytometry analysis to compare the NTSR1 expression level in different lung and HCC cell lines, including A549, H1299, HA22T and Mahlavu. A total of 1×10^6 cells were reacted with the h7C3-3 antibody in FACS buffer for 60 minutes at 4° C. and washed two times to remove excess antibody. Cells were then transferred to 4° C. or 37° C. for 0, 0.5, 2, 5, 24 hours and followed by an additional incubation with secondary anti-human IgG Fc-PE (BioLegend) antibody for 60 minutes at 4° C. Cells were washed again, and data were collected by BD LSRFortessa. Fluorescence intensity from channel FL-1 was calculated with Flow Jo flow cytometry analysis software."}, "[1]": {"tested_on": "NTSR1-expressing A549 cancer cells", "test": "Internalization of h7C3-3 or h7C3-3-ADC in A549 cells (flow cytometry)", "type": "cell-based", "details": "A549, 1 μg/ml, 37° C. for 90 minutes", "procedure": "A total of 1×10^6 cells were reacted with the indicated antibody or ADC in 100 μL of FACS buffer for 60 minutes at 4° C. and washed to remove excess antibody or ADC. Cells were then transferred to 4° C. or 37° C. for 90 minutes. To determine the relative number of h7C3-3 or h7C3-3-ADC on the cell surface, cells were stained with saturating amounts of FITC (BD Pharmingen™) conjugated mouse anti-human IgG antibodies and incubated for additional 60 minutes on ice. Cells were washed again and followed by an additional incubation with 1 ml PBS containing 0.5 mg/mL propidium iodide at 4° C. for 10 minutes. Data were collected on 10,000 living cells by FACS (Bio-Red S3e cell sorter). Fluorescence intensity from channel FL-1 was calculated with Flow Jo flow cytometry analysis software. Preparation of anti-NTSR1 antibody-drug conjugates (ADCs)"}, "PC-3": {"tested_on": "PC-3", "test": "In vitro cell cytotoxicity assay (CellTiter-Glo)", "type": "cell-based", "procedure": "(§1) The number of living cells were determined using the CellTiter-Glo® Luminescent Cell Viability Assay (Promega G7571). Cells were plated in 96-well opaque Costar plates (Cat number 136101). In brief, 500-2500 cells in 90 μL media were added to each well in quadruplicate and allowed to adhere for 16 hours. Anti-NTSR1 (dose range: 0-500 nM), anti-NTSR1-MMAE (dose range: 0-500 nM) or Paclitaxel (dose range: 0-100 nM) were added in […] 72-120 hours, medium was removed, and 200 μL of CellTiter-Glo® viability reagent contain culture medium (1:1) was added to each well and placed on an orbital shaker in the dark for 2 minutes. The plate was allowed to sit at RT for 10 minutes before being read on a GloMax® Explorer Multimode Microplate Reader (GM3500)."}, "H1299": {"tested_on": "H1299", "test": "In vitro cell cytotoxicity assay (CellTiter-Glo)", "type": "cell-based", "procedure": "as §1"}, "A549": {"tested_on": "A549", "test": "In vitro cell cytotoxicity assay (CellTiter-Glo)", "type": "cell-based", "procedure": "as §1"}, "Mahlavu": {"tested_on": "Mahlavu", "test": "In vitro cell cytotoxicity assay (CellTiter-Glo)", "type": "cell-based", "procedure": "as §1"}, "HA22T": {"tested_on": "HA22T", "test": "In vitro cell cytotoxicity assay (CellTiter-Glo)", "type": "cell-based", "procedure": "as §1"}, "HA22T-Luc": {"tested_on": "HA22T-Luc", "test": "In vitro cell cytotoxicity assay (CellTiter-Glo)", "type": "cell-based", "procedure": "as §1"}, "NTSR1": {"target": "T1, NTSR1 (Homo sapiens, UniProt P30989)", "T1 construct": "Solid tumors were excised from PC-3 xenograft mice without treatment, followed by immunohistochemistry staining using antibodies specific for NTSR1; from tissue; host or cells: PC-3 prostate cancer xenograft tumour grown in mice", "T1 sequence (P30989 whole entry)": "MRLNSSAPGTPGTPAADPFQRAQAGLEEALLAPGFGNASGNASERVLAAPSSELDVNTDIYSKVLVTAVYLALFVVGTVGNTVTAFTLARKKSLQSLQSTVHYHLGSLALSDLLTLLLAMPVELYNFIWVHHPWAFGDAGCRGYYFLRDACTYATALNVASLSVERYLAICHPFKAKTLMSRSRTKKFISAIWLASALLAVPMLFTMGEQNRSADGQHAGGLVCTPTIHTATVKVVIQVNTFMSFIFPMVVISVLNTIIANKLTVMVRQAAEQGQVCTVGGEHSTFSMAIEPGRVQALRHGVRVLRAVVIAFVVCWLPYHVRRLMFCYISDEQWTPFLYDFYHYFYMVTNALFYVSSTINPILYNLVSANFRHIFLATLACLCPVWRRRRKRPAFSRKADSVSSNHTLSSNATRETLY", "test": "Immunohistochemistry staining of PC-3 xenograft tumor tissue", "details": "2 μg/ml antibody", "procedure": "Deparaffinized tissue sections (4 μm) were subjected to heat-induced epitope retrieval in Tris-EDTA buffer (pH 9) at 95° C. for 30 minutes. The sections were blocked with inhibitor CM at 37° C. for 4 minutes. The slides were incubated with primary antibody including 2 μg/ml anti-NTSR1-B12 (SC-376958, Santa Cruz Biotechnology) and different […] antibody clones (7C3, h7C3-2 and h7C3-3) for 1 hour. The slides were then incubated with appropriate secondary antibodies; OmniMap anti-mouse-HRP for anti-NTSR1-B12 and anti-human-HRP for 7C3, h7C3-2 and h7C3-3 at RT for 30 minutes. The staining was performed with diamino-benzidine tetrahydrochloride."}, "NTSR1 on A549 cells": {"target": "T2, NTSR1 on A549 cells (Homo sapiens, UniProt P30989)", "T2 construct": "endogenous in cells; host or cells: A549 (NSCLC)", "T2 sequence (P30989 whole entry)": "as above", "test": "Flow cytometry (FACS) binding of anti-NTSR1 antibodies on A549 cells", "procedure": "A total of 1×10^6 cells were reacted with an anti-NTSR1 antibody in 100 μL of FACS buffer (PBS containing 0.5% BSA) for 60 minutes at 4° C. and washed two times to remove excess antibody. Secondary FITC (BD Pharmingen™) conjugated mouse anti-human IgG antibodies were incubated for an additional 60 minutes on ice. Cells were washed again and followed by an additional incubation with 1 ml PBS containing 0.5 mg/mL propidium iodide at 4° C. for 10 minutes. Data were collected on 10,000 living cells by FACS (Bio-Red S3e cell sorter). Fluorescence intensity from channel FL-1 was calculated with Flow Jo flow […] cytometry analysis software."}, "NTSR1 ECL2 peptide [2]": {"target": "T3, NTSR1 ECL2 peptide (Homo sapiens, UniProt P30989)", "test": "Kon (M^-1s^-1)", "procedure": "(§2) Table printed on a drawing sheet, FIG. 2\nHead of the field: Kon (M^-1s^-1)\n(§3) The patent's description of the figure: FIG. 2 is a graph showing affinity and kinetics data of h7C3-3. The binding affinity between h7C3-3 and NTSR1 ECL2 peptide was determined by surface plasmon resonance (SPR).\n(§4) First copying reader's note: Table stands under the sensorgram plot headed h7C3-3 inside the same frame.\n(§5) Where the first naming reader finds the target: description_of_the_figure: The binding affinity between h7C3-3 and NTSR1 ECL2 peptide was determined by surface plasmon resonance (SPR)."}, "NTSR1 ECL2 peptide [3]": {"target": "T3, NTSR1 ECL2 peptide", "test": "Surface plasmon resonance with immobilized ECL2 peptide", "details": "SPR, 1:1 binding model", "procedure": "The interaction of NTSR1-specific mAbs with extracellular loop 2 (ECL2) peptides of NTSR1 was measured by surface plasmon resonance using an Open SPR (Nicoya, Canada) instrument. Biotin-conjugated ECL2 peptides were immobilized on a streptavidin-coated sensor chip by injecting the peptides diluted in HBS-EP5 buffer saline (20 mM HEPES, 250 mM NaCl, 3 mM EDTA, 0.05% Tween 20 and 0.5% BSA, pH 7.4) at a concentration of 10 μg/ml at a flow rate of 30 μl/min. For kinetic experiments, NTSR1-specific mAbs diluted in HBS-EP5 at concentrations ranging from 24 to 1.5 nM were injected at a flow rate of 30 μl/min over the immobilized ECL2 peptides. Binding of the NTSR1-specific mAbs at different concentrations to the immobilized ECL2 peptides were analyzed using the TraceDrawer software (Nicoya, Canada). Association rate (ka), dissociation rate (kd), and affinity (KD) were calculated using global analysis, fitting the data to a simple 1:1 binding model."}, "NTSR1 ECL2 peptide [4]": {"target": "T3, NTSR1 ECL2 peptide", "test": "Koff (s^-1)", "procedure": "as §2\nHead of the field: Koff (s^-1)\nas §3, §4, §5"}, "[5]": {"tested_on": "cyclic ECL2 peptide of NTSR1", "sequence (P30989 206-234 limits assumed)": "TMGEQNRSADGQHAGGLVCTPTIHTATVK", "test": "NTSR1-binding affinity ELISA (alanine scanning variants)", "design": "species or system human", "details": "h7C3-2 variants", "procedure": "The NTSR1-binding capacity of different antibodies were measured by ELISA. Briefly, NeutrAvidin 96-well plates (Pierce Cat:15128) were coated with cyL2-Biotin peptides at a final concentration of 5 μg/ml at […]. On the following day, the coating solution was removed, and the plates were blocked with 5% (v/v) non-fat dry milk in phosphate buffer saline (PBS) for 1 hour. After washing with PBST, gradient concentrations of anti-NTSR1 antibodies were added in triplicate. After 1 hour of incubation, the plate was washed three times with PBST, followed by the addition of horseradish peroxidase (HRP)-conjugated goat anti-human IgG Fc antibody (100 μL) into each well for an additional hour at RT. Finally, 100 μL of tetramethylbenzidine (TMB) substrate was added into each well to produce color for visualization. After 2 minutes of incubation, 100 μL of 2M H2SO4 was used to stop the reaction. The absorbance of each well was read at 450 nm with a plate reader. Flow cytometry"}}, "data": [{"molecule": "B1", "values": [{"measurement": "mean fluorescence intensity (MFI) upon shifting cells from 4° C. to 37° C. (internalization)", "setting": "A549 cells", "result": "decreased gradually"}, {"measurement": "internalization efficiency", "setting": "[1]", "result": "internalized efficiently"}, {"measurement": "IC50", "setting": "PC-3", "result": "> 500", "unit": "nM"}, {"measurement": "IC50", "setting": "H1299", "result": "> 500", "unit": "nM"}, {"measurement": "IC50", "setting": "A549", "result": "> 500", "unit": "nM"}, {"measurement": "IC50", "setting": "Mahlavu", "result": "> 500", "unit": "nM"}, {"measurement": "IC50", "setting": "HA22T", "result": "> 500", "unit": "nM"}, {"measurement": "IC50", "setting": "HA22T-Luc", "result": "> 500", "unit": "nM"}, {"measurement": "immunohistochemistry staining", "setting": "NTSR1", "result": "clustered and more intense"}, {"measurement": "FACS binding (%, 1 μg/ml)", "setting": "NTSR1 on A549 cells; A549 cells, antibody 1 μg/ml", "result": 98.7, "unit": "%"}, {"measurement": "FACS binding (%, 10 μg/ml)", "setting": "NTSR1 on A549 cells; A549 cells, antibody 10 μg/ml", "result": 100, "unit": "%"}, {"measurement": "binding on cell surface", "setting": "NTSR1 on A549 cells; A549 cells, one hour incubation at 4° C.", "result": "have binding efficiency on cell surface"}, {"measurement": "affinity for NTSR1 on A549 cells compared with h7C3-2", "setting": "NTSR1 on A549 cells; FACS, h7C3-2 variant", "result": "higher affinity"}, {"measurement": "EC50", "setting": "NTSR1 on A549 cells; relative mean fluorescence intensity (MFI) on A549 cells", "result": 1.1, "unit": "µg/mL"}, {"measurement": "Kon", "setting": "NTSR1 ECL2 peptide [2]", "result": 441000, "unit": "M⁻¹ s⁻¹"}, {"measurement": "Kd", "setting": "NTSR1 ECL2 peptide [3]", "result": 0.3, "unit": "nM"}, {"measurement": "Koff", "setting": "NTSR1 ECL2 peptide [4]", "result": 0.000134, "unit": "s⁻¹"}, {"measurement": "binding affinity to peptide compared with h7C3-2 (in words)", "setting": "[5]", "result": "higher binding affinity"}]}]}
